Holding throughout (experiment): cell-based or functional assay
The target of assay [1] is Wuhan_Hu-1_D614G spike (B.1) on pseudovirus (SARS-CoV-2, UniProt P0DTC2 14-1273).
Assay [2] addresses Wuhan_Hu-1 spike (B.1_614D) on pseudovirus (SARS-CoV-2, UniProt P0DTC2 14-1273).
Assay [3] has as its target Omicron BA.2.75 spike on pseudovirus (SARS-CoV-2).
Assay [4] addresses Omicron BA.2 spike on pseudovirus (SARS-CoV-2).
The target of assay [5] is Omicron BA.1 spike on pseudovirus (SARS-CoV-2).
The target in assay [6] is Omicron BA.4.6 spike on pseudovirus (SARS-CoV-2).
The target in assay [7] is Omicron BA.2.12.1 spike on pseudovirus (SARS-CoV-2).
The target in assay [8] is Omicron BA.4/5 spike on pseudovirus (SARS-CoV-2).
Assay [9] addresses Omicron BA.1 spike on pseudovirus (SARS-CoV-2). This is another data set of the same source.
Assay [10] has as its target Omicron BA.2.75 spike on pseudovirus (SARS-CoV-2). This is another data set of the same source.
Assay [11] concerns the target Omicron BA.2 spike on pseudovirus (SARS-CoV-2). This is another data set of the same source.
Assay [12] addresses Beta spike (B.1.351) on pseudovirus (SARS-CoV-2).
The target in assay [13] is Omicron BA.1 spike on pseudovirus (SARS-CoV-2). The source holds these as a separate data set.
Assay [14] has as its target Delta spike (B.1.617.2) on pseudovirus (SARS-CoV-2).
Assay [15] addresses Omicron BA.4.6 spike on pseudovirus (SARS-CoV-2). This is another data set of the same source.
For assay [16], the target named is Omicron BQ.1.1 spike on pseudovirus (SARS-CoV-2).
In assay [17] the target is Omicron BA.2.12.1 spike on pseudovirus (SARS-CoV-2). The source holds these as a separate data set.
The target of assay [18] is Gamma spike (P.1) on pseudovirus (SARS-CoV-2).
Assay [19] has as its target Wuhan_Hu-1_D614G spike (B.1) on pseudovirus (SARS-CoV-2, UniProt P0DTC2 14-1273). The source holds these as a separate data set.
The target in assay [20] is Omicron BA.4/5 spike on pseudovirus (SARS-CoV-2). The source holds these as a separate data set.
In assay [21] the target is Alpha spike (B.1.1.7) on pseudovirus (SARS-CoV-2).
Assay [22] concerns the target Wuhan_Hu-1 spike (B.1_614D) on pseudovirus (SARS-CoV-2, UniProt P0DTC2 14-1273). The source holds these as a separate data set.

“And” between values parts separate entries of the source, which are not always exact repeats. Equal entries are not always repeated. Where two headings read alike, the source gives them in different places.

B1: Bamlanivimab (antibody, V domains shown)
VH: QVQLVQSGAEVKKPGSSVKVSCKASGGTFSNYAISWVRQAPGQGLEWMGRIIPILGIANYAQKFQGRVTITADKSTSTAYMELSSLRSEDTAVYYCARGYYEARHYYYYYAMDVWGQGTAVTVSS
VL: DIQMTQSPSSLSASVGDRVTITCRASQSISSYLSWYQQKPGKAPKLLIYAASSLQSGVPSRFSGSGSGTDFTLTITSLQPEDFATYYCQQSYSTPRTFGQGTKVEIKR
As for B1, the “IC50, pseudovirus neutralization” value in assay [1] turned out to be 2 ng/mL; in assay [2] it was 5.3 ng/mL.

B2: Casirivimab (antibody, V domains shown)
VH: QVQLVESGGGLVKPGGSLRLSCAASGFTFSDYYMSWIRQAPGKGLEWVSYITYSGSTIYYADSVKGRFTISRDNAKSSLYLQMNSLRAEDTAVYYCARDRGTTMVPFDYWGQGTLVTVSS
VL: DIQMTQSPSSLSASVGDRVTITCQASQDITNYLNWYQQKPGKAPKLLIYAASNLETGVPSRFSGSGSGTDFTFTISGLQPEDIATYYCQQYDNLPLTFGGGTKVEIK
With B2, the “IC50, pseudovirus neutralization” value in assay [1] stood at 2.3 ng/mL; in [2], 6.2 ng/mL.

B3: Imdevimab (antibody, V domains shown)
VH: QVQLVESGGGVVQPGRSLRLSCAASGFTFSNYAMYWVRQAPGKGLEWVAVISYDGSNKYYADSVKGRFTISRDNSKNTLYLQMNSLRTEDTAVYYCASGSDYGDYLLVYWGQGTLVTVSS
VL: QSALTQPASVSGSPGQSITISCTGTSSDVGGYNYVSWYQQHPGKAPKLMIYDVSKRPSGVSNRFSGSKSGNTASLTISGLQSEDEADYYCNSLTSISTWVFGGGTKLTVLG
As for B3, the “IC50, pseudovirus neutralization” value in assay [1] turned out to be 2.5 ng/mL; in assay [2] it was 4.8 ng/mL.

B4: Bebtelovimab (antibody, V domains shown)
VH: QITLKESGPTLVKPTQTLTLTCTFSGFSLSISGVGVGWLRQPPGKALEWLALIYWDDDKRYSPSLKSRLTISKDTSKNQVVLKMTNIDPVDTATYYCAHHSISTIFDHWGQGTLVTVSS
VL: QSALTQPASVSGSPGQSITISCTATSSDVGDYNYVSWYQQHPGKAPKLMIFEVSDRPSGISNRFSGSKSGNTASLTISGLQAEDEADYYCSSYTTSSAVFGGGTKLTVLG
B4: the results for the “IC50, pseudovirus neutralization” value in [1] and in [2] were 1.9 ng/mL and 2.8 ng/mL, respectively.

B5: ACOVIMAB (antibody, V domains shown)
VH: EVQLVESGPEVKKPGTSVKVSCKASGFTFTTTSSVQWVRQARGQRLEWIGWIVVGSGETEYAQNFQDRVTITSDMSTTTAYMEMSSLRSEDSAFYYCAAPYCSGGTCMDGFDLWGQGTLVSVSS
VL: EIVLTQSPGTLSLSPGERATLSCRASQSVRSNYLGWYQQKPGQAPRLLIYAASSRATGIPDRFSGSGSGTDFTLTISRLEPEDFAVYYCQQYDRSPWTFGQGTKVESKR
Consider B5, for which the “IC50, pseudovirus neutralization” value is 1 to 3 ng/mL in assay [3]; 1 to 3 ng/mL in assay [4]; 1 to 3 ng/mL in [5]; 150 ng/mL in assay [6]; 1 to 3 ng/mL in [7]; 150 ng/mL and 280 ng/mL in assay [8]. Moreover, the “IC50, pseudovirus neutralization” value in assay [10] stood at 3.7 ng/mL; in [11], 2.9 ng/mL; in [12], 2 ng/mL; in assay [13] it was 1.3 ng/mL; in [14], 5.1 ng/mL; in assay [15] it was 0.22 µg/mL. For the same molecule, the “IC50, pseudovirus neutralization” value in assay [16] amounted to 0.29 µg/mL; in assay [17] it was 3.7 ng/mL; in assay [18], 2.9 ng/mL; in assay [19], 5.9 ng/mL; in assay [20], 0.22 µg/mL; in [21], 5.2 ng/mL. In assay [22], the “IC50, pseudovirus neutralization” value was determined as 9 ng/mL. The “IC50 vs BA1” value in assay [9] was 0.9 ng/ml and 60 pM.

B6: Tixagevimab (antibody, V domains shown)
VH: QMQLVQSGPEVKKPGTSVKVSCKASGFTFMSSAVQWVRQARGQRLEWIGWIVIGSGNTNYAQKFQERVTITRDMSTSTAYMELSSLRSEDTAVYYCAAPYCSSISCNDGFDIWGQGTMVTVSS
VL: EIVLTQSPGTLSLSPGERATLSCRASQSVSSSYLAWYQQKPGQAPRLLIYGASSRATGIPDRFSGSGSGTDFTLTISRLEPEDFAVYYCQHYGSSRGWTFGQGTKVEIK
With B6, the “IC50, pseudovirus neutralization” value in assay [1] was found to be 1.2 ng/mL; in assay [2] it was 3.2 ng/mL.

B7: Etesevimab (antibody, V domains shown)
VH: EVQLVESGGGLVQPGGSLRLSCAASGFTVSSNYMSWVRQAPGKGLEWVSVIYSGGSTFYADSVKGRFTISRDNSMNTLFLQMNSLRAEDTAVYYCARVLPMYGDYLDYWGQGTLVTVSS
VL: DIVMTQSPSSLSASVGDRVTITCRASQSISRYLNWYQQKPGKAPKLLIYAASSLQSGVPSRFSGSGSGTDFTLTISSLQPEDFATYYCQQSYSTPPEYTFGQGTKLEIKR
For the molecule B7, the “IC50, pseudovirus neutralization” value worked out at 6.6 ng/mL in [1] and 12 ng/mL in assay [2].
